Experimental data published in the DeepSol protein solubility set.

Assay: soluble on expression in E. coli; label from the status in PepcDB or PDB records

Soluble on expression in E. coli, not soluble:
MTDQIKTDNARSKAEQLPLAFSHQSASGREDLLVSASLAAAVSLVDEWPNWPSPVVVLAGPPGSGKSHLANIWKNISDARDIHPEAGADAARAAETGPVLFEDADRRGFDDTELFHVINSVRQHGTTLLMTSRQWPAAWPVTLPDLRSRLKAVTVVETGEPDEGLLAQVLVKLFADRQLYMDDKLIGYIVNRMERSLDTAQTIVEQIDHLALSRATRITRPLVAEVLNAMDKAAAGDGSDID
MGSDKIHHHHHHMKFNTTIKRLQEAVNKVILAVPAKSLDARFDNINLTLENGMLTMFATDGELSITTNCDVASTDKGNIAIRARTLQDFLRSMYETDVTFDIERQSIGELGTIHIATDKGRYRIPCTFTTKPESQKRNFDLSIELQQNELQDMIHKTLFACSVDGMRPAMMGVLFEFDEEYITAVSTDGHRLVRCRKKPGVTVAEKQKIVVPARVLSIIQRMLTNEEVKMTIDSERRNVKFKTATMELESALIVEPYPNYEAVIPVENEKQLVTDRSQLHDSVKRVGRFSSIGDLKISAQDSQIKVMAENASEGESAQEELPCTFTGEEITIGFNAKFVEAALSHIETEQVSIEMSSPTTAVLFKPKYEERQDDLIILVMPVRINN
MMEEQLIPIQWKDDALVLLDQTLLPNEIVYESFKTAESVWDAIQVMKVRGAPAIGVSAAYGVYLGIKEFAESTEEGFMDEVRKVCTYLATSRPTAVNLFWALERMESVATDNIHLSISQLKNRLLEEAKEIHREDEEINRQIGEHALTLFHDGMGVLTHCNAGALATTKYGTATAPMYLAKEKGWDLKIYSDETRPRLQGSTLTALELQRAGIDVTVITDNMAAMVMSQGKIDAVIVGCDRVAANGDVANKIGTLGVSILAKYYNIPFYVAAPTPTIDLKTSTGKEIPIEERDASEVINRFGKYSAPKESKVYNPAFDVTPHENVTAIITEKGIVKAPFTENLKKLFQ
MASNVSLTGLAHDLKQRAENHPPIRIGLIGCGEMGTDLLSSIAHMDGITVAAVATRTPSRIFDAARLAYGEEGHVREVENASALTRTIEKGLIAATNDIDLVLRHEQIDIIVDATGYPEAGAEIGFKALENNKNLVMMNVEADVTIGAYLKHEAEKQGLIYTLGAGDEPTSCMELIEFVSALGHKI
MGHHHHHHSHAKGKSAGLVKATGRNMEQFQVSVSVAPNAKITFELVYEELLKRRLGVYELLLKVRPQQLVKHLQMDIHIFEPQGISFLETESTFMTNQLVDALTTWQNKTKAHIRFKPTLSQQQKSPEQQETVLDGNLIIRYDVDRAISGGSIQIENGYFVHYFAPEGLTTMPKNVVFVIDKSGSMSGRKIQQTREALIKILDDLSPRDQFNLIVFSTEATQWRPSLVPASAENVNKARSFAAGIQALGGTNINDAMLMAVQLLDSSNQEERLPEGSVSLIILLTDGDPTVGETNPR
MATKKCINGHQYDSSIYGDNCPFCPSSHSTRVLDDDTTTGKTQVLGGNMNAETDTIDLGKSGQNNPGGATVIRHVNPTGGTGMASDNRRLVGLLVSYDQNPMGEVYKIYEGRNVIGRAATSDIPIPGDSNMSSQHLLILYREAEGIFWAADQNSSNGTYINGTFVGDRVQLYTNDVIVLGATKMIFLAIPQ
MAISDGRTGNTRQAEALASTLVGSLYTTQVLKPRIPWRWTAPYCLPGAKHAFGTTFSHALRYPPFLAIGCGRQAALATRLLHKQGACVVQILDPRLPARHWDLLVVPEHDHIRGHNVLTLLGSLHPVNDVWLATGRAQFPELGDLPGQRVALLVGAPTPQAPWQPAQLEELCTALVKGLSCGGSVLATTSRRTPPELATQLRKHLATIPGLFWNNTDKGANPYPGILGWADAIIATADSVNLLSEACATRAPVTAAFANQTRGRIRCFIDALGARLCTVENLLAIDTLAQPLRETERIANEVRAWFGMV
MGVDPSVKVEYKAPTVTYDQVGFMSKSTLMTHEQLISVRSAKVRQSVKITVKEQIPKSHDDKIKVSIVSPEIKSSSSSKNSSPPDARLNKDHNLEWCVILAPGQHRLLPVRYTIEHPASESLSYKFN
MEAIDMPYKITALQPFGVIVEPKHAPIHVNELDIDELRELFLREQLVLLRGFETFEHSEQFADYCERWGEVSVWPFGRVLDLVQKEDPGDHIFDSSYMPMHWDGMYRPQVPEYQIFQCVKAPLPGHGGRTTFSHTMLALQHAPQPDLELWQQVTGHYQRKMEFYHSKTVSPIVMQHPYRDYQVIRYNEPHFEENGDLLNPPDVSLSGITPEQAIEFHKSLRRALYDPRNFYAHEWQTGDIVITDNFSLLHGREAFTSHTPRHIRRVQVLSNPPYNNPSLESYQCPQK
MGSDKIHHHHHHMKKETKHFRALLADNALYYIYSNISAPLSLQELAKEAGVSAHHFHRIFKEEQGQNLYETIKSIRLQKAANLLLSNHYSTISEVAQLCGYSSSASFIKAFKGRFHLTPREWRHGGHRQYAKEILSTSSAAMASQRSFLGLEPTIKKIPAFRAVYLRHKGYNKSIALSWQKLMAWGFEHQISSQARQIGIHHDNPSITPLAECRYIAALEVEEGFRAQGLLGVMEFPPTLCAVFEVQGRYGDVLGLIDYVYHEWLPQSGYEAKTIPAFALYQKNHFLDPLGNFQLDFCLPVGVV
MSGSSHYPVANWNLDGIVSGLRGARQEWRGPRGRLREESESGVREFPSQESLRDIMRQLFGALFPMRLGPIDLREEVEDFYVGHTIGAALDALLHQVCLELQHLGRDDPQPYGQVLERAVDIVRRFGAELPAVRKALDLDVTAAYQGDPAARSVDEVLLCYPGVTAMIHHRLANVLYRLGAPMLARIVAEIAHSDTGIDIHPGATIGRSFFIDHGTGVVIGETAIIGERVRLYQMVTLGAKRFPPGENGELKKGLPRHPIIEDDVVIYAGATILGRITIGQGSTIGGNVWLTHSVPPNSTVTQAGAINDMPDCGLGGLEHHHHHH
MLSFPRPHSLVEGVVSAIRREIVSGRLPAESKMPTEHELADQFSVSRSVVREAISQLKADGVLVIRRGSGSFVSQTPGGTVFRLPGNEDHSAGLAKLFELRSWIEIQVASVAAQRHTDADLKRLSDAMLLMESNAGNFEISSKADCEFHCAIVAACKNEYLTAFHDFLGSQLIQARFMAWENSSKLEIGPSGAIREHREIFDAIAKRNPSEAAHCARMHLKAAALRLNIDLAD

Soluble on expression in E. coli, soluble:
MHAGEAVQQLKKAFETVASFDFRDALSKASTPVTVVATNGPFGLAGLTCSAVCSVCDRPPTVLLCINRKSYAAGIIKSNGVLSVNWLAAGQAVISQTFAGVGSVPMEERFADKGWQTIATGAPYRMDAAVSFDCTIANIVDVGSHSVIFAEVVARNHAEECTPLIYHRRQYATTRSLAEHHHHHH
MSLALFYGRKITVAGISKRGSETALEISEKLSEKGLAVKCYSRSNLKGCNTYIGSTQNFVLSEVRKSDVLVLVMSLGGAVRIIEKASILKEEGIAVIVVDDYGRYAIPIVNGHSGSANVFARLISELIGSEYIITDAVELNGLMSVEEMSRRLYCTIANPECVLKINTALANGDPVFARNESSKRKHAFEMIKYPWKTYSRSDDAKIIITDRPGEGGEICYLVPDDISVGIGFTGKADPYNIKKRIEEVLLSLGLGYDDVNCVSSLRYNKFLSELIKDNGTEFRTFSADDLKSVDVSLLSHISEEAEEKLGIPGSAEPSALLSLGPGSRIIYPFTKFDHSMTISVASRREGHHHHHH
GMSPQSMLTSPQHPRRTTMVISHGTLSASAEHAAHLRQLLVHIAQATRQEDGCLLYLVSEDLSQPGHFLITEHWDNLGAMHTHLALPGVTQAIDALKHLNVTDLKITAYEAGEAINIMG
MSLRPQAPMTQTPMAQASTSTTTPQKIVLYMATTTSVKDTGLLDVLIPDFEKWAASRGYNIEVRYTAVGTGQALAMAARGDVDVVIVHAPSLEKQYLENGTLKCRDVIAYNFFIIVGPRDDPAGAKSLTATEAFRRIAEAKAPFVSRGDRSGTHLMELSLWRRAIGREPDPKNDTWYISAGAGMGQTLLLANEKSAYTLSDTGTWLRYRDKLPQLDVIVQAAPDLINIYSFSIVKLSNATRLMAQYMKTRGLEVIGNLTINGVSLFTPINKADPKAMEWIKTAIFGPSCVEREGHHHHHH
GPGSMKTENFPRGQSAGPEGSLVEIPDHGERQQEVCHIGAPLQREIEAPAAEAGQSSDYKKPHAPHLLPVMEPVKPSSDPQLKDGRKEMPFTSALPIVVPDAPRLATQQRQVQKTKGNGSSAVPGEPDTCEGEPRAPSPGDPRPTQAFPAVEPFKRTASAKLSEARTDPRSPSASPDNESDGARVGSRQVDEEGSRPLCTLPAVELRKKPAGSTLQEEQAKELNTTHAFPVVEPDAVCTEARRSEELEDTRAGHAFPPVASGKQNTGA
LKVGFFKRNLKEKIEAGRGVPNGIPAEDSEQLASGQEAGDPGCLKPLHEKDSESGGGKDG
GMKFSKFGQKFTQPTGISQLMDDLGDALKSDQPVNMLGGGNPAKIDAVNELFLETYKALGNDNDTGKANSSAIISMANYSNPQGDSAFIDALVGFFNRHYDWNLTSENIALTNGSQNAFFYLFNLFGGAFVNEHSQDKESKSVDKSILLPLTPEYIGYSDVHVEGQHFAAVLPHIDEVTHDGEEGFFKYRVDFEALENLPALKEGRIGAICCSRPTNPTGNVLTDEEMAHLAEIAKRYDIPLIIDNAYGMPFPNIIYSDAHLNWDNNTILCFSLSKIGLPGMRTGIIVADAKVIEAVSAMNAVVNLAPTRFGAAIATPLVANDRIKQLSDNEIKPFYQKQATLAVKLLKQALGDYPLMIHKPEGAIFLWLWFKDLPISTLDLYERLKAKGTLIVPSEYFFPGVDVSDYQHAHECIRMSIAADEQTLIDGIKVIGEVVRELYDNK
SNAIIAGETSIPSQGENMPAYHARPKNADGPLPIVIVVQEIFGVHEHIRDLCRRLAQEGYLAIAPELYFRQGDPNEYHDIPTLFKELVSKVPDAQVLADLDHVASWAARHGGDAHRLLITGFCWGGRITWLYAAHNPQLKAAVAWYGKLVGEKSLNSPKHPVDIAVDLNAPVLGLYGAKDASIPQDTVETMRQALRAANATAEIVVYPEADHAFNADYRASYHEESAKDGWQRMLAWFAQY
LRARTYGEGGFRVERVLEERPAFTRVQFSYLSDGLRVHGFANLPKGRGPFPVVVVLHGYVEPSRYRLLAYTTPYADFLAERGYLVLHPNFRGHPPSEGAPAQGLRHVYAVDVLNLLAEVRRGAFPQADPARIALFGHSMGGGVAQIVSLVDPGLKGAVLYGSMSGDERRNLERIRYWSGGSRGQELFALSPEVLRQASAWTYLAELSVPYSVHHGTQDAQVPPEWSWELCRRLKALKKPVECFSYPGGHLFRGEVDRVFRERVLAFLGRVL
MEVIRSQKRTVSNDVVSTPTLPLYLTAPHMEVRLEEFELFAIDRLRVLKGVSDGLARARNPNEMDDLVETLWKEHMRLSNVSEMINKDIISHFVLRLVYCRSDELKKWFLSMETALFRHRFRLKKIEEQRAIVGEFGLPYKAVIGAELESLKERLGLVARSHGQISSDVENIYYKVPFEEVPDLVASRRVLLQKGFAFVAGTQLVSLVVTQFRSHLSKALILTNRKWTTTIREREKDRLTPIVEALSTSYLGPDYSQSNEYADISLKDIDQVSKSSFPLCMRHLFEKLREDHHLKHGGRMQLGLFLKLDDALAFWREEFTKKVGSERFDKEYAYAIRHNYGKEGKRTDYTPYACSKIITSAPGAGDHHGCPYRHFSEDNLKAALSRMGLSSRGMEDVMDKVRNRHYQLACTLTFEAVYGTSCDTGINHPNQYFEESQKILKSKTPAAPV
